Read-outs that look alike come from different tables or passages of the source.

Data on 2 proteins can be found in paper doi:10.1101/2025.05.22.655525 (bioRxiv, 2025).

Data set [1] concerns the molecule itself. Briefly: crystal structure.
Data set [2] deals with the molecule itself. Briefly: crystal structure. This is another data set of the same source.

B1: human syntenin-1 PDZ tandem (PDZ1-PDZ2), residues 113-273 (domain or fragment, UniProt O00560 113-273, looked up)
chain: REVILCKDQDGKIGLRLKSIDNGIFVQLVQANSPASLVGLRFGDQVLQINGENCAGWSSDKAHKVLKQAFGEKITMTIRDRPFERTITMHKDSTGHVGFIFKNGKITSIVKDSSAARNGLLTEHNICEINGQNVIGLKDSQIADILSTSGTVVTITIMPAF
Take B1: in “crystal structure [1]”, the binding result is given as “binds”.

B2: human syntenin-1 PDZ tandem (PDZ1-PDZ2), residues 113-276 (domain or fragment, UniProt O00560 113-276, looked up)
chain: REVILCKDQDGKIGLRLKSIDNGIFVQLVQANSPASLVGLRFGDQVLQINGENCAGWSSDKAHKVLKQAFGEKITMTIRDRPFERTITMHKDSTGHVGFIFKNGKITSIVKDSSAARNGLLTEHNICEINGQNVIGLKDSQIADILSTSGTVVTITIMPAFIFE
As for B2, in “crystal structure [2]”, the binding result was “binds”.
